{"source": "patent US20090304768A1", "about": "“Gastro-Retentive System for the Delivery of Macromolecules” (INTEC PHARMA LTD, priority 2006, published 2009)", "key": {"[1]": {"assay": "Stability assay of PTH 1-34 in various buffer solutions over 24 hr at 37° C.", "assay_type": "physicochemical", "experimental": "The stability of PTH 1-34 in various buffer solutions over 24 hr at 37° C. was evaluated to allow selection of a suitable buffer for in vitro release experiments. The lyophilized peptide (0.1 mg) was dissolved in each buffer solution that was tested. The concentration of PTH 1-34 in samples withdrawn from the solution at 0, 4, 8, and 24 hours were analyzed by HPLC (Gemini (Phenomenex) 5 μ C18, 250×4.6; mobile phase˜0.1% Trifluoroacetic acid/Acetonotrile:0.1% Trifluoroacetic acid/Water, gradient elution, 1 mL/min; 100 μL injection, UV PDA detection at 214)."}, "[2]": {"assay": "Stability of the peptide in 1% acid solution, incubation for 24 hr at 37° C.", "assay_type": "physicochemical", "settings": "1% acetic acid", "experimental": "PTH 1-34 (molecular weight of 4117.8, UCB Bioproducts, USA) was received as a lyophilized powder. The peptide was made up in 1% acetic acid. The stability of the peptide in 1% acid solution was confirmed by incubating it for 24 hr at 37° C."}}}
{"substance": "PTH 1-34: Parathyroid hormone fragment 1-34, molecular weight 4117.8, UCB Bioproducts, lyophilized powder", "values": [{"measurement": "stability at pH=2.2 over 24 hr", "setting": "[1]; KCl/Cl buffer pH=2.2, over 24 hr", "value": "stable"}, {"measurement": "stability at pH=1.2", "setting": "[1]; buffer pH=1.2, 37° C.", "value": "decreased stability"}, {"measurement": "stability at pH>7", "setting": "[1]; buffer pH>7, 37° C.", "value": "decreased stability"}, {"measurement": "stability in various buffer solutions", "setting": "[1]; various buffer solutions, 24 hr at 37° C.", "value": "stable over a wide range of pH values"}, {"measurement": "stability of the peptide in 1% acid solution", "setting": "[2]", "value": "confirmed"}]}
